# Reference: PMC7718890, “High-throughput screening to discover inhibitors of the CarD·RNA polymerase protein–protein interaction in Mycobacterium tuberculosis” (Scientific Reports, 2020)
# Assays:
# [1] = target: CarD T8C labelled with BODIPY-FL (Mycobacterium tuberculosis) (UniProt P9WJG3); experiment: fluorescence polarisation
# [2] = target: Mycobacterium tuberculosis RNA polymerase, wild type (Mycobacterium tuberculosis) (UniProt P9WGY9); experiment: fluorescence polarisation
Substance,Kd [1] [nM],Ki [2] [nM]
"Mycobacterium tuberculosis RNA polymerase, wild type (from UniProt P9WGY9 8-1140) (complex)",65,–
"Wild-type MTB CarD, unlabeled (from UniProt P9WJG3 1-162) (natural protein)",–,8
